Reference: publication PMC3257258, “Characterization of a Novel Association between Two Trypanosome-Specific Proteins and 5S rRNA”

T1: P37 (Trypanosoma brucei, UniProt O15759 1-279)
T1 sequence: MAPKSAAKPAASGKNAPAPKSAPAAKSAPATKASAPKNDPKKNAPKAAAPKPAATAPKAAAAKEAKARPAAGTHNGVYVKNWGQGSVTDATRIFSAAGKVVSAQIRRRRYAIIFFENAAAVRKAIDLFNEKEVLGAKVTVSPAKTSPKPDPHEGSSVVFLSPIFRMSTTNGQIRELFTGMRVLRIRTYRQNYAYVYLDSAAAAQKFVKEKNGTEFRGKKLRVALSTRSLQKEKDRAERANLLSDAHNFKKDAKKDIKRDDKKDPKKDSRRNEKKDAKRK

T2: P34 (Trypanosoma brucei, UniProt O15758 1-262)
T2 sequence: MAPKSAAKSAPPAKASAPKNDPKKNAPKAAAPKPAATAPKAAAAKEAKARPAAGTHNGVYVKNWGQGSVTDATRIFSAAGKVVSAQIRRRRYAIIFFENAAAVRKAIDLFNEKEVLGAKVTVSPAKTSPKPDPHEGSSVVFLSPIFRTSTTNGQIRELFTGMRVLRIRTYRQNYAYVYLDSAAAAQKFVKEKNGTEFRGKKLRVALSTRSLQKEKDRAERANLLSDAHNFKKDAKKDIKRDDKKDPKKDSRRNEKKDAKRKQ


What was measured:
P37 [1] = target: T1, P37; assay: filter binding; similar to wild type, data not shown; Filter binding: 10 mM Tris pH 7.4, 1 mM EDTA, 100 mM NaCl, 0.1% NP-40, 100 ug/mL BSA, RT 20 min; EMSA/competition/RNase H protection: 10 mM Tris-HCl pH 7.4, 150 mM KCl, 0.1 mM DTT, 0.1 mM EDTA, 0.1% NP-40, RT 20 min; details: protein: recombinant; tags: His (pQE-1); label: 32P-UTP (body)
P34 [2] = target: T2, P34; assay: filter binding; no significant difference from wild type (one text sentence says P37; legend and assay say P34); Filter binding: 10 mM Tris pH 7.4, 1 mM EDTA, 100 mM NaCl, 0.1% NP-40, 100 ug/mL BSA, RT 20 min; EMSA/competition/RNase H protection: 10 mM Tris-HCl pH 7.4, 150 mM KCl, 0.1 mM DTT, 0.1 mM EDTA, 0.1% NP-40, RT 20 min; details: protein: recombinant; tags: His (pQE-1); label: 32P-UTP (body)
P34 [3] = target: T2, P34; assay: competition; competes 5S rRNA at 100-1000 ng; Filter binding: 10 mM Tris pH 7.4, 1 mM EDTA, 100 mM NaCl, 0.1% NP-40, 100 ug/mL BSA, RT 20 min; EMSA/competition/RNase H protection: 10 mM Tris-HCl pH 7.4, 150 mM KCl, 0.1 mM DTT, 0.1 mM EDTA, 0.1% NP-40, RT 20 min; details: protein: recombinant; tags: His (pQE-1); hairpin
P37 [4] = target: T1, P37; assay: competition; competes 5S rRNA at 100-1000 ng, somewhat better than for P34; Filter binding: 10 mM Tris pH 7.4, 1 mM EDTA, 100 mM NaCl, 0.1% NP-40, 100 ug/mL BSA, RT 20 min; EMSA/competition/RNase H protection: 10 mM Tris-HCl pH 7.4, 150 mM KCl, 0.1 mM DTT, 0.1 mM EDTA, 0.1% NP-40, RT 20 min; details: protein: recombinant; tags: His (pQE-1); hairpin

| Binder | binding result (P37 [1]) | binding result (P34 [2]) | binding result (P34 [3]) | binding result (P37 [4]) |
| --- | --- | --- | --- | --- |
| 5S rRNA deltaU (U43A) (structured_RNA) RNA: GGGUACGACCAUACUUGGCCGAAUGCACCAUAUCCCGUCCGAAUUGUGAAGUUAAGCGGCCACAGGCCUCGUUAGUACGGCGAUCAGUGAUGGCGCUGGAACCCGGGGUGUUGUACUCU | binds | binds |  |  |
| GCGGGGUGCCAUACUUACAGGCCUCGC (structured_RNA) [LoopA/StemV] |  |  | binds | binds |
